Experimental data as given in patent publication US20220118063A1.

Target: FVIII (B region deleted), purchased from American Pharma Wholesale (human) (UniProt P00451)
Assay: cell-based or functional assay

Chain of UniProt P00451 (P00451 other isoform, or with tags, fused parts or gaps, chain 1 of 2): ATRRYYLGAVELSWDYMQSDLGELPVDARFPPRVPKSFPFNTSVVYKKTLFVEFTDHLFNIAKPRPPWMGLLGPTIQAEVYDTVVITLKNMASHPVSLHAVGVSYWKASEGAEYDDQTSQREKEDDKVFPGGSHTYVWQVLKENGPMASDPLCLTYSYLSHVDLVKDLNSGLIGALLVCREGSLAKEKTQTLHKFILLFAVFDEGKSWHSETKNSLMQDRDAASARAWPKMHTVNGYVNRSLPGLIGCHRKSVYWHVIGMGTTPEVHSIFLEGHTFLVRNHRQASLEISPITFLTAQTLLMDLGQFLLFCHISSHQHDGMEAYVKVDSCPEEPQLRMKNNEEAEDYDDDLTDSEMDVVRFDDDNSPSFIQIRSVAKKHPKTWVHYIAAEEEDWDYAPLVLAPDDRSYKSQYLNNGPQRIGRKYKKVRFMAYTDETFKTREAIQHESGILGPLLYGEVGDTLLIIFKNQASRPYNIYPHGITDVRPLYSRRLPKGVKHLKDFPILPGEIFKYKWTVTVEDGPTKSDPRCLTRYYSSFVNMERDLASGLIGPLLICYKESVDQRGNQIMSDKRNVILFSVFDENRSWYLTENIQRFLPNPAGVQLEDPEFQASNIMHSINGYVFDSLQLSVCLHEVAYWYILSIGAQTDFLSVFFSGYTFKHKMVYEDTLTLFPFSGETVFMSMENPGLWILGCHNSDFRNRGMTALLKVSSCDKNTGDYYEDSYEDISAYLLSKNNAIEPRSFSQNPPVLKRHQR
Chain of UniProt P00451 (P00451 1668-2351, stated change not applied, chain 2 of 2): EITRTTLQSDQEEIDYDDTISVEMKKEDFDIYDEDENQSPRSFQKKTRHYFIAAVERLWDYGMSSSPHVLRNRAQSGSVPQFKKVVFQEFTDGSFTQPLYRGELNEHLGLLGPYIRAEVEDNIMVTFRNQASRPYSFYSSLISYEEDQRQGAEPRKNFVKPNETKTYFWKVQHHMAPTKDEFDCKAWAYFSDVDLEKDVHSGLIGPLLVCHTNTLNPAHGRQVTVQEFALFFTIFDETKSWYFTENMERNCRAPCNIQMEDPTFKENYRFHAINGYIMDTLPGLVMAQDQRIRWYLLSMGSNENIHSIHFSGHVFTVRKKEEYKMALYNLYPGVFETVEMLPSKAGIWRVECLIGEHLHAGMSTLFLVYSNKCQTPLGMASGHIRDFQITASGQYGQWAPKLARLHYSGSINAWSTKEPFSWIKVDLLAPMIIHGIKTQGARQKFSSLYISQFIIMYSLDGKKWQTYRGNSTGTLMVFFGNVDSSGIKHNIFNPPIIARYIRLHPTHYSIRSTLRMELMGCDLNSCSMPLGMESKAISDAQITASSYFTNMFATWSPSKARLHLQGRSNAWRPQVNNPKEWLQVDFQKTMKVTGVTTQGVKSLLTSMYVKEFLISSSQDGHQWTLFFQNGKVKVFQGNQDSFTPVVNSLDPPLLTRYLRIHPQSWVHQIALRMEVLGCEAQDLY

fold decrease in specific activity of CM211 in the APTT against the Coatest assay: 6.5 fold
Substance: CM110 (expressed from plasmid pCM110RMHM: D′D3 region of human von Willebrand Factor with cys1099 and cys1142 changed to alanine, 56 amino acid glycine serine rich linker, full length human albumin, no His tag) (from UniProt P04275 764-1247)
